The DeepSol protein solubility set

Assay: soluble on expression in E. coli; label from the status in PepcDB or PDB records
With “SLAKYLELSMGFEEVAYRGLETNSRRLASHVVRNGNILFEIINTLESVAEHYPTVPMSKEEALSIKLDYSADEAHILKSLKEKIIKLTAEIVDENLDRYKYAMDIKAAKENLERSIINSTNFTAAISTIRKSINECVETSKKAIQDNFESFLIQEFVKIHGEGVMDISFNVLDVDSAFQKAIESGAYIIKLPQTMSDVHGSVKLATIAVPYTDIHHTLIQNKDYSGPFLPNYTKSIIEKPETYMHQLESLPPIRLDCIDHCVENYSWNQMMEHARFYANIFGFHKYWSVDEKDVFTGETALKSIVMASSNGKVKMPINEPAKGRKKSQIEEFYDFNGGPGVQHIALKTNDIIATVTSLRKRGIEFNPASQKYYDTLKQRLINDDIILKEDFNSIQNLNILVDYDPETRNNASKTCNYILQIFTKPLHDRPTLFIEIIQRRHHNGFGKGTFKGLFETIEAQQKLRGTLVSSDEG” the “soluble on expression in E. coli” value was “not soluble”. With “SLALPADPIQRCLDIRRLVDITSRQKMAAKEPGVLRFKFHKISASELPLDNPVGNMDEVIQALNNQIENCNNSYGEFQTVTIAGHQFKRQEWCLNTNKKMLTLAKAAHGDFKKFLSSIKTEFDWYKSDGWPENHAGFKKGEFQFTAYYAPAAVEARSERGGAFLYPLYSNPGVVSVALESKKYNLKTPLCGVDPLSKVMRGFCLKNADGTYSVAPDREEIEHGALNPKYIIGYLKDPNDSAFLMLQGSGSLLLDGKLFHINYDGANGRPRTMLGRIVQCAQDPTCGGNLDTMERCAKDPKCHDEAKLRCNVSKKIRQSAASEKLIRQYLNNLTPDKADNLRNRDQSYVFFAKEDGGPYGSENISLTPHV” the “soluble on expression in E. coli” value was “not soluble”. With “SLAPQPLKKGEKAIDVASVVRQKMPASVKDRDAWAKDLATTFESQGLAPTLENVCSVLAVAQQESNYQADPAVPGLSKIAWQEIDRRAERMHIPAFLVHTALKIKSPNGKSYSERLDSVRTEKQLSAIFDDLISMVPMGQTLFGSLNPVRTGGPMQVSIAFAEQHTKGYPWKMDGTVRQEVFSRRGGLWFGTYHLLNYPASYSAPIYRFADFNAGWYASRNAAFQNAVSKASGVKLALDGDLIRYDSKEPGKTELATRKLAGKLGMSDSEIRRQLEKGDSFSFEETALYKKVYQLAEAKTGKSLPREMLPGIQLESPKITRNLTTAWFAKRVDERRARCMKQ” the “soluble on expression in E. coli” value was “soluble”. For “SLCHVTRPDAVVMEIEVDAKANGEDCLNKVCRKLGIIEVDYFGLQFSGSKGENLWLNLRNRISQQMDNLTPCRLRLRVKFFVEPHLILQEQTRHLFFMHVKEDLHRGHLRMCSEQAQELSALLAQAEFGDYNQNTAKYWYTELCGSEPNQTTINSIIAKHKALEGLSQASVEYQALQLVSSLEHYGVEWHWARDAEAQRLAIGVGPEGIAICRDDFSLVNRISYPIIQIATQSGKSVYLTVTKESSDSVVLLFKLISN”, the “soluble on expression in E. coli” value was “soluble”. With “SLEEKVRPCIDLIDSLRALGVEQDLALPAIAVIGDQSSGKSSVLEALSGVALPRGSGIVTRCPLVLKLKKLVNEDKWRGKVSYQDYEIEISDASEVEKEINKAQNAIAGEGMGISHELITLEISSRDVPDLTLIDLPGITRVAVGNQPADIGYKIKTLIKKYIQRQETISLVVVPSNVDIATTEALSMAQEVDPEGDRTIGILTKPDLVDKGTEDKVVDVVRNLVFHLKKGYMIVKCRGQQEIQDQLSLSEALQREKIFFENHPYFRDLLEEGKATVPCLAEKLTSELITHICKSLPLLENQIKETHQRITEELQKYGVDIPEDENEKMFFLIDKINAFNQDITALMQGEETVGEEDIRLFTRLRHEFHKWSTIIENNFQEGHKILSRKIQKFENQYRGRELPGFVNYRTFETIVKQQIKALEEPAVDMLHTVTDMVRLAFTDVSIKNFEEFFNLHRTAKSKIEDIRAEQEREGEKLIRLHFQMEQIVYCQDQVYRGALQKVREKELEEEKKKKSWDFGAFQSSSATDSSMEEIFQHLMAYHQEASKRISSHIPLIIQFFMLQTYGQQLQKAMLQLLQDKDTYSWLLKERSDTSDKRKFLKERLARLTQARRRLAQFPGEG” the “soluble on expression in E. coli” value was “not soluble”. For “SLGPPPGPPRVSPDPRAELDSTVLLTRSLLADTRQLAAQLRDKFPADGDHNLDSLPTLAMSAGALGALQLPGVLTRLRADLLSYLRHVQWLRRAGGSSLKTLEPELGTLQARLDRLLRRLQLLMSRLALPQPPPDPPAPPLAPPSSAWGGIRAAHAILGGLHLTLDWAVRGLLLLKTR”, the “soluble on expression in E. coli” value was “soluble”. For “SLKLLIEEFIPVEEISEEAKKEKLGNAKPPIFSLHYWWARKPLITARAAVLGALISKENLPMIVGNGDLKTNLLRILRIPKDINEGPRAHTQDPPAEYLKEAIIKTWGEIPTVLDPFAGGGSIPFEALRLGCNAVAVDYNPVAYLILKETLEYPKKYGMKLIL”, the “soluble on expression in E. coli” value was “soluble”. For “SLKPINYVPHFLCRISGEEINSISEIEFIKTLECLELSEGILRKINSLSADLTKDLHDCISLYKEQSISRVLINLKRDIFNMRFNRVQKYKLENISGFNHDKLNLWLNLAQEYQSTLHLMRETFKMEIQEKRGKLKQLFSNSEYIKAIQVSNTQLYENLLEYLQDNQSHPPKKMRNIEQSLINYLSRMIFKPTPFSSFTGLNYGFFSQEDSSFEINTKESKGHTRINMVYLKKIERMLLNRISIKNKCYVSLNQTINEEENYMFFRRGKDGTSQAFTGEAFIKIKKSELLKELIQYFEGISSMNIVEVVSFLSEKTNYETEALYNYLFKLEKMGVLDFSLGVSEQSDNYTKDLIENLLGIKDSLVEKSVSHLVEIEKIQAIFSESNYQKRYVLLKNLQEHIKKIYSLFDLKLESNDLTSLLFEDVSYKNTKIILNENQWKTHLDDFNLIKNLMPLFDDNILEKLSMNIIFKDIYGNKGAIDLLEFYREFNKYDKNLLWKKIRKNDTYLYLKKLRTEFYDYLETQINMGLDTIFLNKSWLKKFINKFPDLLKSKENYSFYFQIAYDNQDNRILVLNKIGPGLGKHFSRYGNLFLNSEYKENNRFINSLIEQYKKYDQNGGVLTDLNAVLGLNLNMHPNLLNYEITYPGCNPSKGINQVALKDIEVLYDSNSDQLKLYSKQYRQNVKLLPLGFLFPALSPSLYKFLCGFSESNGIEYSFWNKFLNEHNNNFSLLPRIMLGSVALDRRTWKINAKEIQKEFSKDTFETFINFHKWVKENQLPEDIFLRVANTMDAFSENELLNQDLGSWIAEIKQTKHRKPQYVNFNNYFHIDALRKIIKDVNNTVTIQEVYPHPDDVYYQKNSKKCVEFLVEVF”, the “soluble on expression in E. coli” value was “soluble”. For “SLKQQLIKNGLVLDMKGNHKPQAKDILIEGKWIRDIRPNIEPEVDTEIIDAEGKIVMPGFVDTHRHVWESLLRHIGTDWTLLTYLDNLYYGNLGSMLTPEDSYIANLWGALEAIDAGVTTVLDWSMLETPEHADASIKGLQAAGIRAVFAHGTPGYETYWSRDSEVRHPKDAKRVKKEYFQSDDQLLTMALAIRGPEFSSWEVTLDDIQLARELDAIASMHIGFGTWGPHDRSITRMREAGLLDSDLNLVHVNRIQPHEYEYIAESGASLSVTPEVEMMMGHGYPATGYLHKHRGLVTLGVDVVVATAGDMFAQMKFALQAERAWQNEQRLDRGEMPEQLKMTTNDVLTFATLNGAKALKLDDKIGTLDVGKEADLLLINPSSFNLFPLNHEPVGAVVQSARPENVDSVFIAGRPVKRHGKLLFDDLDGLRNKVLAASEAVFHRQAAKN”, the “soluble on expression in E. coli” value was “not soluble”. In the case of “SLKVYSKDEIVEQAKELAKMISETEEVDFFKKAEAQIHKNENVKRAIDEIKALQKQAVNLQHYGKWEALKKVEAEIDALQDKLDSIPVVQEFKSSQTYVNDLLQLVASTISNNVTDEILISTNGDVLKGETGAAVESKKGNCGC”, the “soluble on expression in E. coli” value is reported as “soluble”. In the case of “SLLKKIKKALFQPKKFFQDSMWLTTSPFYLTPPRNNLFVISNLGQLNQVQSLIKIQKLTNNLLVILYTSKNLKMPKLVHQSANKNLFESIYLFELPRSPNNITPKKLLYIYRSYKKILNIIQPAHLYMLSFTGHYSYLISIAKKKNITTHLIDEGTGTYAPLLESFSYHPTKLERYLIGNNLNIKGYIDHFDILHVPFPEYAKKIFNAKKYNRFFAHAGGISINNNIANLQKKYQISKNDYIFVSQRYPISDDLYYKSIVEILNSISLQIKGKIFIKLHPKEMGNNYVMSLFLNMVEINPRLVVINEPPFLIEPLIYLTNPKGIIGLASSSLIYTPLLSPSTQCLSIGELIINLIQKYSMVENTEMIQEHLEIIKKFNFINILNDLNGVISNPLFKTEETFETLLKSAEFAYKSKNYFQAIFYWQLASKNNITLLGHKALWYYNALYNVKQIYKMEYSDIFYIDNISVDFHSKDKLTWEKIKHYYYSADNRIGRDR”, the “soluble on expression in E. coli” value is reported as “not soluble”. With “SLNIKLKDFTMINAVSSLAPVQSLGNYKRVEKNEKVENNEAALDRVAEIKKAIENNQYKINLHETSHKMAKDLLGIS” the “soluble on expression in E. coli” value was “soluble”. With “SLPGMEHNHNHDHSSHGNHAMHDVGPADATYDLRFIDAMIQHHYGAIEMAKVTINQGYPGAGALASQIISAQSWEIANMLRQRQLRFPDAPIMPVRYTPGQSTVLSQLQPMTEADKVAMRMSGTMDMTGDRGKAFAAAMIPHHEMAIAMAEDALAKSGDSFVRSISWEIIRTQSDEIRRLRGLL” the “soluble on expression in E. coli” value was “not soluble”. With “SLPHPAPGPGDPEDPRLAEVVDAVRSSRRYQSVAPETVRRLATSALVASRGDLAEAVKRTKRGLHEIFGAYLPSPPKYDALLRQLRGAVDAATTRPCGHPAPRHVHARLHPRALPILDEFYREVFARCADPASVRDLACGMNPLAAPWMPGSDAFTYHASDIDTRLMEFLDAALETLGVAHDVRVRDLMTGVGEVETDVTLLLKTVPCIEAQGRGQGWDLIDAIRSPLVVVSFPTKSLGQRSKGMFNTYSANFDAWLENRPHDVEQLEFRNELVYFVRKNA” the “soluble on expression in E. coli” value was “soluble”. For “SLRHFGKRLRVSSSQPFRRSFNPKGEPMSTQIFVNLPVKNLNQSIEFFTQLGFQFNSQFTDETATCMIVSESIFVMLLTHEKFKMFTPKEICDATKSTEVLVCLSFDSREQVDEMVRLAVTAGGTTYNEPQDHGFMYGHGFADLDGHIWEIIYMEPSAINLGEG”, the “soluble on expression in E. coli” value was “soluble”. With “SLRRAAKAEAQAWLLTERLAQAEERHRLLEDQSATQIELIKAQAAQSANAIAEQLIKRADENAKSRERLAEARLEAQLKPVAETLAKFEAQVTAVEKARAEETGGLKAQITALLEASTATQAEARKLSAALRRGAGVQGRWGEQTLRNVLEAAGLNSRFDFQEQFSVDSEEGRRRPDVKVTLPGGGVFVIDAKCSLNAFLEAQDATDEVLREAAMARHAQSVRTHMQGLSSKAYWDQFAGEGSPDFVAMFVPGDGFLAAALDRLPELMAEAMDRRVVLVTPTTLFALCKAVAYGWRAEDQAKNAARIVEVGRELYKRVSVMGAHAGAMGKALESAVGKYNQFVGSLESQVLTQARRFEDLSVDHEGKEIPEPPMVDQAVRPLTKLKAVGQSPTLTLGNDTPT” the “soluble on expression in E. coli” value was “soluble”. In the case of “SLSAASILVVDDEESLRITLAANLELEGHLVLEASSGDEALRLLRERAVDVVLTDIRMPGLHGVELHRHLRREHPGLPVVLMTAFAQESLINDALAEGAFTVLPKPFDVEHLLETLRREG”, the “soluble on expression in E. coli” value is reported as “soluble”. In the case of “SLSAPIRVLVVDDHVLSRRELEVALAAEADIEVVGSAVNSPAAVTLGSESRPDVALVDVEEPHEDGIRAVSAIKRAVSPVRILILATSDDEAHLFGAVRAGAVGYLLKPRPMDELTAAVRSVHNGVSIIGPGVASQVMKEFAAMARSEKSPAMPHLTVRELDVLKLMVGGCANQGISRRLLISENTVKNHIRNILEKLQFSAWEG”, the “soluble on expression in E. coli” value is reported as “soluble”. With “SLSFTLEEEDITGTWYVKAMVVDKDFPEDRRPRKVSPVKVTALGGGNLEATFTFMREDRCIQKKILMRKTEEPGKFSAYGGRKLIYLQELPGTDDYVFYCKDQRRGGLRYMGKLVGRNPNTNLEALEEFKKLVQHKGLSEEDIFMPLQTGSCVLEH” the “soluble on expression in E. coli” value was “soluble”. For “SLSMKLLIADDEDTIRNGIAKYIKLHTDRFSQIYLAENGQQALDIILQYQPDMMLLDVQMPLKTGLEVLQEAQKLSLVPKTIILSGYDDFEYARKALRYGAKDYLLKPCRSSEILEAINKLVQEQLGTKEDVECEEGTGIHYIVSSAIEYMEEYYHKNLTLIEVSNKVGITAGYLSTLFTQNMNCGFVEYLNKIRIKHACSYLEQNYFKTYEIAYKVGFKDEKYFSKVFKKETGITPYEYRRDHSIGKNIRTEG”, the “soluble on expression in E. coli” value was “soluble”.
